Assay results published in paper PMC7079100.

Legend:
MSI2-RRM1 [1] = biological target: T1, MSI2-RRM1 (Homo sapiens, UniProt Q96DH6 21-111); experiment: fluorescence polarization; 2 nM RNA; lower affinity than Numb15; Kd only in figure; FP at room temperature, 2 nM 3' FAM RNA; buffer, salt and pH not given (previously described methods)
MSI2-RRM1 [2] = biological target: T1, MSI2-RRM1; experiment: fluorescence polarization; 2 nM RNA; highest affinity of the three; Kd only in figure; FP at room temperature, 2 nM 3' FAM RNA; buffer, salt and pH not given (previously described methods)

T1 sequence (Q96DH6 21-111): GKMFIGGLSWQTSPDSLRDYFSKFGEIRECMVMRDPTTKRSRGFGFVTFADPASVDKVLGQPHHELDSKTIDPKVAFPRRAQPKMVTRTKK

B1: Numb8 (ssRNA)
RNA: GUAGUAGU
binding result (MSI2-RRM1 [1]): binds

B2: Numb5 (ssRNA)
RNA: GUAGU
binding result (MSI2-RRM1 [1]): binds

B3: Numb15 (ssRNA)
RNA: UAGGUAGUAGUUUUA
binding result (MSI2-RRM1 [2]): binds
